Measurements from article PMC4682845 (2015).

Molecular target: […]-para-nitroanilide (TQ6-pNA) peptide substrate
Assay: ITC

B1: MERS-CoV main protease (M^pro), wild type, authentic N-terminus (enzyme)
chain: SGLVKMSHPSGDVEACMVQVTCGSMTLNGLWLDNTVWCPRHVMCPADQLSDPNYDALLISMTNHSFSVQKHIGAPANLRVVGHAMQGTLLKLTVDVANPSTPAYTFTTVKPGAAFSVLACYNGRPTGTFTVVMRPNYTIKGSFLCGSCGSVGYTKEGSVINFCYMHQMELANGTHTGSAFDGTMYGAFMDKQVHQVQLTDKYCSVNVVAWLYAAILNGCAWFVKPNRTSVVSFNEWALANQFTEFVGTQSVDMLAVKTGVAIEQLLYAIQQLYTGFQGKQILGSTMLEDEFTPEDVNMQIMGVVMQ
In the case of B1, the Kd is reported as 20.3 µM.
